Results as given in publication PMC9200632 (2022).

Target: T1, MBP–FlaA (C. jejuni flagellin FlaA, amino acids 177–482) (C. jejuni, biotinylated (EZ-Link NGS-PEG4-Biotin kit) in the BLI)
T1 chain: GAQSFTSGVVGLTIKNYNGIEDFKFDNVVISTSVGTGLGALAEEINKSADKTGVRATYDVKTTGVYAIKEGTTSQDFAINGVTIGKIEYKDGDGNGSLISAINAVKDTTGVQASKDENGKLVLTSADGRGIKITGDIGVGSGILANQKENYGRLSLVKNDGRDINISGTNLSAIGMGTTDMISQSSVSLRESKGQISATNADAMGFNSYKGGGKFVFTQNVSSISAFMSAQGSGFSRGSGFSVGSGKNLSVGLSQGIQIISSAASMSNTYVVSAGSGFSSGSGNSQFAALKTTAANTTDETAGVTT
Test: BLI

B1: aa682 (VHH)
VHH: QVQLVESGGGLVQAGGSLRVSCTASVSTFSINALGWYRQAPGKARELVAAIGSDGTVYYTDSVKGRFTISRDNAKNTVSLQMSSLKPEDTAVYYCNAAGKRIGSDGSIWFAVASFGSWGQGTQVTVSS
koff: 0.024 s⁻¹
